According to IntAct's records for PubMed 26280580:

B1: Ras-related protein Rap-1A (Homo sapiens), P62834 (parent)
chain: MREYKLVVLGSGGVGKSALTVQFVQGIFVEKYDPTIEDSYRKQVEVDCQQCMLEILDTAGTEQFTAMRDLYMKNGQGFALVYSITAQSTFNDLQDLREQILRVKDTEDVPMILVGNKCDLEDERVVGKEQGQNLARQWCNCAFLESSAKSKINVNEIFYDLVRQINRKTPVEKKKPKKKSCLLL

Variants of: B1
Details: with braf_human BRAF

Variant	effect of a mutation on the interaction
MREYKLVVLGSGGVGKSALTVQFVQGIFVEKYDPTIEDSYRKQVEVDCQQCMLEILDTAGTEQFTAMRDLYMKNGQGFALVYSITAQSTFNDLQDLREQILRVKDTEDVPMILVGNKCDLEDERVVGKEQGQNLARQWCNCAFLESSAKSKINVNEIFYDLVTQINRKTPVEKKKPKKKSCLLL [R163T]	with no effect
